Measured values published in US20230384326A1 (CANON MEDICAL SYSTEMS, published 2023).
One block for each binder: values may come before it.

How the values were obtained:
mCRP (99) peptide [1] = target: T1, mCRP (99) peptide (human); test: solid phase peptide ELISA
T1 peptide: EILFEVPEVTC
Experimental: (§1) Epitope analysis was performed by the following procedure. [0200] (a) Peptides were immobilized on a plate by standing at 50 ng/well (50 μL/well) for 16 hours at 4° C. […] (b) Solid phase peptides were washed twice with Dulbecco's PBS (D-PBS) (200 μL/well). […] (c) Blocking was performed by adding 200 μL of D-PBS containing 0.1% BSA and 0.05% NaN₃ to each well and leaving it at 4° C. overnight. […] (d) Each well was washed twice with the washing buffer. [0204] (e) The antibody was diluted to 1 μg/mL with the dilution buffer and the diluted solution was added to each well (50 μL/well) and left at 37° C. for 30 minutes. […] (f) Each well was washed four or more times with the washing buffer. […] (g) Anti-mouse IgG (γ-specific)-HRP, a labeled antibody, was added to each well (50 μL/well) and left at 37° C. for 30 minutes. [0207] (h) Each well was washed four or more times with the washing buffer. […] (i) A chromogenic reaction was started by adding a substrate solution (400 μg/mL) to each well (100 μL/well), and the reaction was allowed to proceed for 15 minutes at room temperature in the dark. [0209] (j) After 15 minutes, the reaction was stopped by addition of 1 mol/L sulfuric acid (100 μL/well), and absorbance (490 nm) was measured.
In the above (e), the same result was obtained even when the antibody concentration added to each well was changed to 5 μg/mL. […]

mCRP (31-60) peptide = target: T2, mCRP (31-60) peptide (human); test: solid phase peptide ELISA (part 2)
T2 peptide: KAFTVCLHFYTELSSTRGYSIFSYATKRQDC

mCRP (61-90) peptide = target: T3, mCRP (61-90) peptide (human); test: solid phase peptide ELISA (part 2)
T3 peptide: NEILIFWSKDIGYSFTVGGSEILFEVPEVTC

mCRP (121-150) peptide = target: T4, mCRP (121-150) peptide (human); test: solid phase peptide ELISA (part 2)
T4 peptide: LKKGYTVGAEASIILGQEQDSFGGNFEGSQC

mCRP (151-180) peptide = target: T5, mCRP (151-180) peptide (human); test: solid phase peptide ELISA (part 2)
T5 peptide: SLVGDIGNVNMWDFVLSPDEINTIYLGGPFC

mCRP (181-206) peptide = target: T6, mCRP (181-206) peptide (human); test: solid phase peptide ELISA (part 2)
T6 peptide: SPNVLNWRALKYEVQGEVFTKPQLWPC

mCRP (19) peptide = target: T7, mCRP (19) peptide (human); test: solid phase peptide ELISA, antibody 1 ug/mL
T7 peptide: QTDMSRKAFVC
Experimental: as §1
(§2) In the above (e), the same result was obtained even when the antibody concentration added to each well was changed to 5 μg/mL. […] Accordingly, it is believed that there are not only one kind of epitope but also a plurality of kinds of epitopes of human denatured CRP-specific monoclonal antibodies.

mCRP (29) peptide = target: T8, mCRP (29) peptide (human); test: solid phase peptide ELISA, antibody 1 ug/mL
T8 peptide: FPKESDTSYVC
Experimental: as §1, §2

mCRP (39) peptide = target: T9, mCRP (39) peptide (human); test: solid phase peptide ELISA, antibody 1 ug/mL
T9 peptide: SLKAPLTKPLC
Experimental: as §1, §2

mCRP (49) peptide = target: T10, mCRP (49) peptide (human); test: solid phase peptide ELISA, antibody 1 ug/mL
T10 peptide: KAFTVCLHFYC
Experimental: as §1, §2

mCRP (59) peptide = target: T11, mCRP (59) peptide (human); test: solid phase peptide ELISA, antibody 1 ug/mL
T11 peptide: TELSSTRGYSC
Experimental: as §1, §2

mCRP (69) peptide = target: T12, mCRP (69) peptide (human); test: solid phase peptide ELISA, antibody 1 ug/mL
T12 peptide: IFSYATKRQDC
Experimental: as §1, §2

mCRP (79) peptide = target: T13, mCRP (79) peptide (human); test: solid phase peptide ELISA, antibody 1 ug/mL
T13 peptide: NEILIFWSKDC
Experimental: as §1, §2

mCRP (89) peptide = target: T14, mCRP (89) peptide (human); test: solid phase peptide ELISA, antibody 1 ug/mL
T14 peptide: IGYSFTVGGSC
Experimental: as §1, §2

mCRP (99) peptide [2] = target: T1, mCRP (99) peptide; test: solid phase peptide ELISA, antibody 1 ug/mL
Experimental: as §1, §2

mCRP (109) peptide = target: T15, mCRP (109) peptide (human); test: solid phase peptide ELISA, antibody 1 ug/mL
T15 peptide: VAPVHICTSWC
Experimental: as §1, §2

mCRP (119) peptide = target: T16, mCRP (119) peptide (human); test: solid phase peptide ELISA, antibody 1 ug/mL
T16 peptide: ESASGIVEFWC
Experimental: as §1, §2

mCRP (129) peptide = target: T17, mCRP (129) peptide (human); test: solid phase peptide ELISA, antibody 1 ug/mL
T17 peptide: VDGKPRVRKSC
Experimental: as §1, §2

mCRP (139) peptide = target: T18, mCRP (139) peptide (human); test: solid phase peptide ELISA, antibody 1 ug/mL
T18 peptide: LKKGYTVGAEC
Experimental: as §1, §2

mCRP (149) peptide = target: T19, mCRP (149) peptide (human); test: solid phase peptide ELISA, antibody 1 ug/mL
T19 peptide: ASIILGQEQDC
Experimental: as §1, §2

mCRP (159) peptide = target: T20, mCRP (159) peptide (human); test: solid phase peptide ELISA, antibody 1 ug/mL
T20 peptide: SFGGNFEGSQC
Experimental: as §1, §2

mCRP (169) peptide = target: T21, mCRP (169) peptide (human); test: solid phase peptide ELISA, antibody 1 ug/mL
T21 peptide: SLVGDIGNVNC
Experimental: as §1, §2

mCRP (179) peptide = target: T22, mCRP (179) peptide (human); test: solid phase peptide ELISA, antibody 1 ug/mL
T22 peptide: MWDFVLSPDEC
Experimental: as §1, §2

mCRP (189) peptide = target: T23, mCRP (189) peptide (human); test: solid phase peptide ELISA, antibody 1 ug/mL
T23 peptide: INTIYLGGPFC
Experimental: as §1, §2

mCRP (199) peptide = target: T24, mCRP (199) peptide (human); test: solid phase peptide ELISA, antibody 1 ug/mL
T24 peptide: SPNVLNWRALC
Experimental: as §1, §2

mCRP (209) peptide = target: T25, mCRP (209) peptide (human); test: solid phase peptide ELISA, antibody 1 ug/mL
T25 peptide: KYEVQGEVFTKPQLWPC
Experimental: as §1, §2

binding result (mCRP (99) peptide [1]): no binding
B1: human denatured CRP-specific antibody produced from hybridoma mCRP-12C (antibody, mouse IgG1, V domains shown)
VH: EVQLQQSGAELVKPGASVKLSCTASGFNIKDYYIHWVKQRTDQGLEWIGRIDPEDDETKYAPKFQGKATIITDTSSNTAYLHLSSLTSADTAVYYCASRIYYYDIKGLFDYWGQGTTLTVSS
VL: DIVMTQAPSSLTVTAGEKVTMTCKSSQSLLNSGNQKNYLTWSQQKPGQPPKLLIYWASTRESGVPDRFTGSGSGTDFTLTISSVQAEDLAVYYCQNDYNYPITFGAGTKLELKR
notes: Mouse IgG1, kappa; also called 12C antibody

binding result (mCRP (99) peptide [1]): no binding
B2: human denatured CRP-specific antibody produced from hybridoma mCRP-18A (antibody, mouse IgG2a)
heavy: EVQLQQSGAEFVKPGTSVKLSCTASGFNIKDYYIHWVKQRTEQGLEWIGRIDPEDGETKYAPKFQGKATITADASSNTAYLQLSSLTSEDTAVYYCVSRMYYYGSQGLFDFWGQGTTLTVSSAKTTAPSVYPLAPVCGGTTGSSVTLGCLVKGYFPEPVTLTWNSGSLSSGVHTFPALLQSGLYTLSSSVTVTSNTWPSQTITCNVAHPASSTKVDKKIEPRVPITQNPCPPLKECPPCAAPDLLGGPSVFIFPPKIKDVLMISLSPMVTCVVVDVSEDDPDVQISWFVNNVEVHTAQTQTHREDYNSTLRVVSALPIQHQDWMSGKEFKCKVNNRALPSPIEKTISKPRGPVRAPQVYVLPPPAEEMTKKEFSLTCMITGFLPAEIAVDWTSNGRTEQNYKNTATVLDSDGSYFMYSKLRVQKSTWERGSLFACSVVHEGLHNHLTTKTISHSPGK
light: DIVMTQSPSSLTVTAGEKVTMGCKSSQSLLNSANQKNYLTWYRQKPGQPPKLLIYWASTRESGVPDRFTGSGSGTDFTLTISSVQAEDLAVYYCQNDYNYPLTCGAGTKLDLKRADAAPTVSIFPPSSEQLTSGGASVVCFLNNFYPKDINVKWKIDGSERQNGVLNSWTDQDSKDSTYSMSSTLTLTKDEYERHNSYTCEATHKTSTSPIVKSFNRNEC
notes: Mouse IgG2a, kappa; also called 18A antibody

Absorbance (490 nm) (mCRP (31-60) peptide): 0.03 A490
Absorbance (490 nm) (mCRP (61-90) peptide): 1.98 A490
Absorbance (490 nm) (mCRP (121-150) peptide): 0.017 A490
Absorbance (490 nm) (mCRP (151-180) peptide): 0.108 A490
Absorbance (490 nm) (mCRP (181-206) peptide): 0.006 A490
Absorbance (490 nm) (mCRP (19) peptide): 0.004 A490
Absorbance (490 nm) (mCRP (29) peptide): -0.001 A490
Absorbance (490 nm) (mCRP (39) peptide): 0.001 A490
Absorbance (490 nm) (mCRP (49) peptide): 0 A490
Absorbance (490 nm) (mCRP (59) peptide): 0.001 A490
Absorbance (490 nm) (mCRP (69) peptide): 0.002 A490
Absorbance (490 nm) (mCRP (79) peptide): 0 A490
Absorbance (490 nm) (mCRP (89) peptide): 0 A490
Absorbance (490 nm) (mCRP (99) peptide [2]): 1.58 A490
Absorbance (490 nm) (mCRP (109) peptide): -0.001 A490
Absorbance (490 nm) (mCRP (119) peptide): 0.005 A490
Absorbance (490 nm) (mCRP (129) peptide): 0.002 A490
Absorbance (490 nm) (mCRP (139) peptide): 0.002 A490
Absorbance (490 nm) (mCRP (149) peptide): 0.001 A490
Absorbance (490 nm) (mCRP (159) peptide): 0.002 A490
Absorbance (490 nm) (mCRP (169) peptide): 0.001 A490
Absorbance (490 nm) (mCRP (179) peptide): 0.003 A490
Absorbance (490 nm) (mCRP (189) peptide): 0.007 A490
Absorbance (490 nm) (mCRP (199) peptide): 0.006 A490
Absorbance (490 nm) (mCRP (209) peptide): 0 A490
B3: human denatured CRP-specific antibody produced from hybridoma mCRP-3C (antibody, mouse IgG2b, V domains shown)
VH: QVQLQQSGAELVRPGASVKLSCKALDYTFTDYEMHWVKQTPVHGLEWIGAIHPGRGGTAYNQKFKGKATLTADKSSSTAYMELSSLTSEDSGVYYCTSYHGGYWGQGTTLTVSS
VL: DVVMTQTPLSLPVSLGDQASISCRSSQSLVHSNENTYLLWYLQKPGQSPKLLIYKVSNRFSGVPDRFSGSGSGTDFTLKISRVEAEDLGVYFCSQTTHVPWTFGGGTKLEIKR
notes: Mouse IgG2b, kappa; also called 3C antibody
